Experimental data published in US20210292396A1.

What was measured:
Assay in all cases: cell-based or functional assay
[1] = target: Env of HIV isolate 247-23 (clade D) (HIV)
[2] = target: Env of HIV isolate 3873.v1.c24 (clade C) (HIV)
[3] = target: Env of HIV isolate 398-F1.F6.20 (clade A) (HIV)
[4] = target: Env of HIV isolate 57128.vrc15 (clade D) (HIV)
[5] = target: Env of HIV isolate 6101.10 (clade B) (HIV)
[6] = target: Env of HIV isolate 6535.3 (clade B) (HIV)
[7] = target: Env of HIV isolate 7165.18 (clade B) (HIV)
[8] = target: Env of HIV isolate 96ZM651.02 (clade C) (HIV)
[9] = target: Env of HIV isolate BL01.DG (clade B) (HIV)
[10] = target: Env of HIV isolate BS208.B1 (clade A) (HIV)
[11] = target: Env of HIV isolate C3347.c11 (clade AE) (HIV)
[12] = target: Env of HIV isolate CM244.ec1 (clade AE) (HIV)
[13] = target: Env of HIV isolate CNE19 (clade BC) (HIV)
[14] = target: Env of HIV isolate CNE20 (clade BC) (HIV)
[15] = target: Env of HIV isolate CNE21 (clade BC) (HIV)
[16] = target: Env of HIV isolate DU151.02 (clade C) (HIV)
[17] = target: Env of HIV isolate DU422.01 (clade C) (HIV)
[18] = target: Env of HIV isolate HT593.1 (clade B) (HIV)
[19] = target: Env of HIV isolate M02138 (clade AE) (HIV)
[20] = target: Env of HIV isolate Q842.d12 (clade A) (HIV)
[21] = target: Env of HIV isolate REJO.67 (clade B) (HIV)
[22] = target: Env of HIV isolate RW020.2 (clade A) (HIV)
[23] = target: Env of HIV isolate ZM249.1 (clade C) (HIV)
[24] = target: Env of HIV isolate ZM55.28a (clade C) (HIV)
[25] = target: Envelope protein of SIVmac251.30.SG3 (clade NA)
[26] = target: HIV Env of isolate 001428-2.42 (HIV)
[27] = target: HIV Env of isolate 231965.c01 (HIV)
[28] = target: HIV Env of isolate 271-11 (HIV)
[29] = target: HIV Env of isolate 3016.v5.c45 (HIV)
[30] = target: HIV Env of isolate 3415.v1.c1 (HIV)
[31] = target: HIV Env of isolate 3988.25 (HIV)
[32] = target: HIV Env of isolate 45_01dG5 (HIV)
[33] = target: HIV Env of isolate 6095.v1.c10 (HIV)
[34] = target: HIV Env of isolate 7165.18 (HIV)
[35] = target: HIV Env of isolate BB539.2B13 (HIV)
[36] = target: HIV Env of isolate BG505.W6M.C2 (HIV)
[37] = target: HIV Env of isolate BJOX002000.03.2 (HIV)
[38] = target: HIV Env of isolate BJOX028000.10.3 (HIV)
[39] = target: HIV Env of isolate BaL.26 (HIV)
[40] = target: HIV Env of isolate CAAN.A2 (HIV)
[41] = target: HIV Env of isolate CM244.ec1 (HIV)
[42] = target: HIV Env of isolate CNE20 (HIV)
[43] = target: HIV Env of isolate CNE30 (HIV)
[44] = target: HIV Env of isolate HT593.1 (HIV)
[45] = target: HIV Env of isolate M02138 (HIV)
[46] = target: HIV Env of isolate MB201.A1 (HIV)
[47] = target: HIV Env of isolate R1166.c1 (HIV)
[48] = target: HIV Env of isolate T257-31 (HIV)
[49] = target: HIV Env of isolate THRO.18 (HIV)
[50] = target: HIV Env of isolate UG021.16 (HIV)
[51] = target: HIV Env of isolate WITO.33 (HIV)
[52] = target: HIV Env of isolate ZM176.66 (HIV)
[53] = target: HIV Env of isolate ZM233.6 (HIV)

With PGT121 (antibody) the IC50, pseudovirus neutralization [1] was greater than 50 mg/L, the IC50, pseudovirus neutralization [2] was 0.045 mg/L and the IC50, pseudovirus neutralization [3] was 0.0223 mg/L. It also gave an IC50, pseudovirus neutralization [4] of 1.27 mg/L, an IC50, pseudovirus neutralization [5] of 0.0123 mg/L and an IC50, pseudovirus neutralization [6] of 0.00633 mg/L. The IC50, pseudovirus neutralization [7] was 0.0363 mg/L, the IC50, pseudovirus neutralization [8] was 0.0213 mg/L and the IC50, pseudovirus neutralization [9] was 19.6 mg/L. For the same substance, the IC50, pseudovirus neutralization [10] was greater than 50 mg/L, the IC50, pseudovirus neutralization [11] was greater than 50 mg/L and the IC50, pseudovirus neutralization [12] was greater than 50 mg/L. For the same substance, the IC50, pseudovirus neutralization [13] was 0.00933 mg/L, the IC50, pseudovirus neutralization [14] was 0.005 mg/L and the IC50, pseudovirus neutralization [15] was 0.0143 mg/L. It also gave an IC50, pseudovirus neutralization [16] of 0.0117 mg/L, an IC50, pseudovirus neutralization [17] of 0.062 mg/L and an IC50, pseudovirus neutralization [18] greater than 50 mg/L. For the same substance, the IC50, pseudovirus neutralization [19] was greater than 50 mg/L, the IC50, pseudovirus neutralization [20] was 0.0217 mg/L and the IC50, pseudovirus neutralization [21] was 1.96 mg/L. The IC50, pseudovirus neutralization [22] was 0.01 mg/L, the IC50, pseudovirus neutralization [23] was greater than 50 mg/L and the IC50, pseudovirus neutralization [24] was 0.0807 mg/L. The IC50, pseudovirus neutralization [25] was greater than 50 mg/L, the IC80, pseudovirus neutralization [26] was 0.108 mg/L and the IC80, pseudovirus neutralization [27] was greater than 50 mg/L. For the same substance, the IC80 [28] was greater than 50 mg/L, the IC80, pseudovirus neutralization [29] was greater than 50 mg/L and the IC80 [30] was greater than 50 mg/L. For the same substance, the IC80 [31] was 0.0287 mg/L, the IC80 [32] was 0.0257 mg/L and the IC80 [33] was greater than 50 mg/L. For the same substance, the IC80 [34] was 0.103 mg/L, the IC80 [35] was greater than 50 mg/L and the IC80 [36] was 0.165 mg/L. The IC80 [37] was 0.068 mg/L, the IC80 [38] was greater than 50 mg/L and the IC80 [39] was 0.06 mg/L. It also gave an IC80 [40] of 0.0503 mg/L, an IC80 [41] greater than 50 mg/L and an IC80, pseudovirus neutralization [42] of 0.0127 mg/L. It also gave an IC80, pseudovirus neutralization [43] of 0.296 mg/L, an IC80 [44] greater than 50 mg/L and an IC80 [45] greater than 50 mg/L. For the same substance, the IC80 [46] was 0.0283 mg/L, the IC80 [47] was greater than 50 mg/L and the IC80 [48] was greater than 50 mg/L. For the same substance, the IC80 [49] was greater than 50 mg/L, the IC80, pseudovirus neutralization [50] was greater than 50 mg/L and the IC80 [51] was 2.02 mg/L. The IC80, pseudovirus neutralization [52] was 27.6 mg/L and the IC80, pseudovirus neutralization [53] was 3.6 mg/L.
